First the molecules themselves.
B1: target 1 insC 3' of 20 (mixed)
RNA 1: CACCCGUGCAAAAAUGCAGGGGUCUAAAACUGAGCGGAUAACCUCUCUAUGG
RNA 2: GGGAAUGGAUCCACAUCUACGAAUUCGUACCACUAGAGAGGUUAUCCGCUCACCGAGAUCGGAAGAGCACACGU
B2: target 1 insU 3' of 17,insG 3' of 7 (mixed)
RNA 1: CACCCGUGCAAAAAUGCAGGGGUCUAAAACUGAGCGGAUAACCUCUCUAUGG
RNA 2: GGGAAUGGAUCCACAUCUACGAAUUCGUACCAUAGUAGAGGUUAUCGCGCUCACCGAGAUCGGAAGAGCACACGU
B3: target 1 C2A,G13C (mixed)
RNA 1: CACCCGUGCAAAAAUGCAGGGGUCUAAAACUGAGCGGAUAACCUCUCUAUGG
RNA 2: GGGAAUGGAUCCACAUCUACGAAUUCGUACCAUAGAGACGUUAUCCGCUAACCGAGAUCGGAAGAGCACACGU
B4: target 3 insG 3' of 8,insG 3' of 7 (mixed)
RNA 1: CACCCGUGCAAAAUUGCAGGGGUCUAAAACGACCUGAAUAUUUCAGAUCAAA
RNA 2: GGGAAUGGAUCCACAUCUACGAAUUCGUUUUUGAUCUGAAAUAUGUGCAGGUCUGCAGAUCGGAAGAGCACACGU
B5: target 3 insC 3' of 7,insC 3' of 5 (mixed)
RNA 1: CACCCGUGCAAAAUUGCAGGGGUCUAAAACGACCUGAAUAUUUCAGAUCAAA
RNA 2: GGGAAUGGAUCCACAUCUACGAAUUCGUUUUUGAUCUGAAAUAUUCCACGGUCUGCAGAUCGGAAGAGCACACGU
B6: target 3 insG 3' of 9,insA 3' of 7 (mixed)
RNA 1: CACCCGUGCAAAAUUGCAGGGGUCUAAAACGACCUGAAUAUUUCAGAUCAAA
RNA 2: GGGAAUGGAUCCACAUCUACGAAUUCGUUUUUGAUCUGAAAUAGUUACAGGUCUGCAGAUCGGAAGAGCACACGU
B7: target 3 G4U,U8G (mixed)
RNA 1: CACCCGUGCAAAAUUGCAGGGGUCUAAAACGACCUGAAUAUUUCAGAUCAAA
RNA 2: GGGAAUGGAUCCACAUCUACGAAUUCGUUUUUGAUCUGAAAUAGUCAUGUCUGCAGAUCGGAAGAGCACACGU
B8: target 3 insA 3' of 17,insA 3' of 15 (mixed)
RNA 1: CACCCGUGCAAAAUUGCAGGGGUCUAAAACGACCUGAAUAUUUCAGAUCAAA
RNA 2: GGGAAUGGAUCCACAUCUACGAAUUCGUUUUUGAUACUAGAAAUAUUCAGGUCUGCAGAUCGGAAGAGCACACGU
B9: target 3 insA 3' of 8,insC 3' of 4 (mixed)
RNA 1: CACCCGUGCAAAAUUGCAGGGGUCUAAAACGACCUGAAUAUUUCAGAUCAAA
RNA 2: GGGAAUGGAUCCACAUCUACGAAUUCGUUUUUGAUCUGAAAUAUAUCAGCGUCUGCAGAUCGGAAGAGCACACGU
B10: target 3 A5G,U8G (mixed)
RNA 1: CACCCGUGCAAAAUUGCAGGGGUCUAAAACGACCUGAAUAUUUCAGAUCAAA
RNA 2: GGGAAUGGAUCCACAUCUACGAAUUCGUUUUUGAUCUGAAAUAGUCGGGUCUGCAGAUCGGAAGAGCACACGU
B11: target 3 insG 3' of 16,insA 3' of 2 (mixed)
RNA 1: CACCCGUGCAAAAUUGCAGGGGUCUAAAACGACCUGAAUAUUUCAGAUCAAA
RNA 2: GGGAAUGGAUCCACAUCUACGAAUUCGUUUUUGAUCGUGAAAUAUUCAGGUACUGCAGAUCGGAAGAGCACACGU
B12: target 3 G4C,U21A (mixed)
RNA 1: CACCCGUGCAAAAUUGCAGGGGUCUAAAACGACCUGAAUAUUUCAGAUCAAA
RNA 2: GGGAAUGGAUCCACAUCUACGAAUUCGUUUAUGAUCUGAAAUAUUCACGUCUGCAGAUCGGAAGAGCACACGU
B13: target 3 insC 3' of 2,insU 3' of 1 (mixed)
RNA 1: CACCCGUGCAAAAUUGCAGGGGUCUAAAACGACCUGAAUAUUUCAGAUCAAA
RNA 2: GGGAAUGGAUCCACAUCUACGAAUUCGUUUUUGAUCUGAAAUAUUCAGGUCCUUGCAGAUCGGAAGAGCACACGU
B14: target 3 insA 3' of 22,insU 3' of 4 (mixed)
RNA 1: CACCCGUGCAAAAUUGCAGGGGUCUAAAACGACCUGAAUAUUUCAGAUCAAA
RNA 2: GGGAAUGGAUCCACAUCUACGAAUUCGUUUAUUGAUCUGAAAUAUUCAGUGUCUGCAGAUCGGAAGAGCACACGU
B15: target 3 insU 3' of 11,insA 3' of 6 (mixed)
RNA 1: CACCCGUGCAAAAUUGCAGGGGUCUAAAACGACCUGAAUAUUUCAGAUCAAA
RNA 2: GGGAAUGGAUCCACAUCUACGAAUUCGUUUUUGAUCUGAAAUUAUUCAAGGUCUGCAGAUCGGAAGAGCACACGU
B16: target 3 C1A,G3U (mixed)
RNA 1: CACCCGUGCAAAAUUGCAGGGGUCUAAAACGACCUGAAUAUUUCAGAUCAAA
RNA 2: GGGAAUGGAUCCACAUCUACGAAUUCGUUUUUGAUCUGAAAUAUUCAGUUAUGCAGAUCGGAAGAGCACACGU
B17: target 3 A9G,U21A (mixed)
RNA 1: CACCCGUGCAAAAUUGCAGGGGUCUAAAACGACCUGAAUAUUUCAGAUCAAA
RNA 2: GGGAAUGGAUCCACAUCUACGAAUUCGUUUAUGAUCUGAAAUGUUCAGGUCUGCAGAUCGGAAGAGCACACGU
B18: target 3 G4U,U7A (mixed)
RNA 1: CACCCGUGCAAAAUUGCAGGGGUCUAAAACGACCUGAAUAUUUCAGAUCAAA
RNA 2: GGGAAUGGAUCCACAUCUACGAAUUCGUUUUUGAUCUGAAAUAUACAUGUCUGCAGAUCGGAAGAGCACACGU
B19: target 3 C1A,U7A (mixed)
RNA 1: CACCCGUGCAAAAUUGCAGGGGUCUAAAACGACCUGAAUAUUUCAGAUCAAA
RNA 2: GGGAAUGGAUCCACAUCUACGAAUUCGUUUUUGAUCUGAAAUAUACAGGUAUGCAGAUCGGAAGAGCACACGU
B20: target 3 G19A,U20G (mixed)
RNA 1: CACCCGUGCAAAAUUGCAGGGGUCUAAAACGACCUGAAUAUUUCAGAUCAAA
RNA 2: GGGAAUGGAUCCACAUCUACGAAUUCGUUUUGAAUCUGAAAUAUUCAGGUCUGCAGAUCGGAAGAGCACACGU
B21: target 3 G3U,G4C (mixed)
RNA 1: CACCCGUGCAAAAUUGCAGGGGUCUAAAACGACCUGAAUAUUUCAGAUCAAA
RNA 2: GGGAAUGGAUCCACAUCUACGAAUUCGUUUUUGAUCUGAAAUAUUCACUUCUGCAGAUCGGAAGAGCACACGU
B22: target 3 G3U (mixed)
RNA 1: CACCCGUGCAAAAUUGCAGGGGUCUAAAACGACCUGAAUAUUUCAGAUCAAA
RNA 2: GGGAAUGGAUCCACAUCUACGAAUUCGUUUUUGAUCUGAAAUAUUCAGUUCUGCAGAUCGGAAGAGCACACGU
B23: target 3 insG 3' of 6,insC 3' of 5 (mixed)
RNA 1: CACCCGUGCAAAAUUGCAGGGGUCUAAAACGACCUGAAUAUUUCAGAUCAAA
RNA 2: GGGAAUGGAUCCACAUCUACGAAUUCGUUUUUGAUCUGAAAUAUUCGACGGUCUGCAGAUCGGAAGAGCACACGU
B24: target 3 U2G,U21A (mixed)
RNA 1: CACCCGUGCAAAAUUGCAGGGGUCUAAAACGACCUGAAUAUUUCAGAUCAAA
RNA 2: GGGAAUGGAUCCACAUCUACGAAUUCGUUUAUGAUCUGAAAUAUUCAGGGCUGCAGAUCGGAAGAGCACACGU
B25: target 3 G4C,A12U (mixed)
RNA 1: CACCCGUGCAAAAUUGCAGGGGUCUAAAACGACCUGAAUAUUUCAGAUCAAA
RNA 2: GGGAAUGGAUCCACAUCUACGAAUUCGUUUUUGAUCUGAUAUAUUCACGUCUGCAGAUCGGAAGAGCACACGU
B26: target 3 C6A,U22G (mixed)
RNA 1: CACCCGUGCAAAAUUGCAGGGGUCUAAAACGACCUGAAUAUUUCAGAUCAAA
RNA 2: GGGAAUGGAUCCACAUCUACGAAUUCGUUGUUGAUCUGAAAUAUUAAGGUCUGCAGAUCGGAAGAGCACACGU
B27: target 3 insA 3' of 21,insG 3' of 2 (mixed)
RNA 1: CACCCGUGCAAAAUUGCAGGGGUCUAAAACGACCUGAAUAUUUCAGAUCAAA
RNA 2: GGGAAUGGAUCCACAUCUACGAAUUCGUUUUAUGAUCUGAAAUAUUCAGGUGCUGCAGAUCGGAAGAGCACACGU

Usually Kd stands for a measure of binding affinity in units of concentration. Higher therefore signals a looser complex.

The target in this data set is T1, EsCas13d, nuclease-dead (Eubacterium siraeum, UniProt B0MS50, R295A;H300A;R849A;H854A).
T1 sequence: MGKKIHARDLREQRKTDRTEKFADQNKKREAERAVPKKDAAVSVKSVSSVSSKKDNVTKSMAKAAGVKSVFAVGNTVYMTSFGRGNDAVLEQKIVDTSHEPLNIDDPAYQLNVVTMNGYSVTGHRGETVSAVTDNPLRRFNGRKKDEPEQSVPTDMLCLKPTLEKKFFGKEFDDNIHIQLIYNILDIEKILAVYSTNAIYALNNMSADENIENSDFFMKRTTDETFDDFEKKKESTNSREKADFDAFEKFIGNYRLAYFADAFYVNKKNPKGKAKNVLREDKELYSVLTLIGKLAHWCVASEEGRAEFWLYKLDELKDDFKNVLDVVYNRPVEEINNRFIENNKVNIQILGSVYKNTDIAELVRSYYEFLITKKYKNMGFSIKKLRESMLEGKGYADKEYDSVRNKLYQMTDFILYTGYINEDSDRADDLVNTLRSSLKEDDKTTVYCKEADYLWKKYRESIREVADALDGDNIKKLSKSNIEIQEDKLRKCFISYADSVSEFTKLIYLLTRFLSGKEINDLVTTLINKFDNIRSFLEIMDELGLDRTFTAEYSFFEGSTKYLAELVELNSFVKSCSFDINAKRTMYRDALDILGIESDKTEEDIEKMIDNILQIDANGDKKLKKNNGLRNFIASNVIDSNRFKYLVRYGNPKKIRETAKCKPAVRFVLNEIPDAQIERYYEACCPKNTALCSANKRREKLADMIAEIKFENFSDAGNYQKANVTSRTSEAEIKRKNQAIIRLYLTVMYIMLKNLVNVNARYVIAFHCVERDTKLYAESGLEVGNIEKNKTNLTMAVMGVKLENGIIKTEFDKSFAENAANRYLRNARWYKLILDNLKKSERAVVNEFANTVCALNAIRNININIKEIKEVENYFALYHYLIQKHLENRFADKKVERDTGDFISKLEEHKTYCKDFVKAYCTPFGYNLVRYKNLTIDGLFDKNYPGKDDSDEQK
As to the kind of experiment: crRNA (strand 1, pre-loaded); Mg2+; 40 mM Tris-HCl pH 7.5, 150 mM NaCl, 6 mM MgCl2, 1 mM DTT, 0.1% Tween-20, 0.2 mg/ml BSA; 25 C; 10 min per concentration, then washed. Particulars: tags: His6-TwinStrep-SUMO cleaved; N-terminal SNAP kept (SNAP-Surface 488); label: 3' end held by stalled T7 RNA polymerase.
Take B1: the Kd amounted to 6.4 ± 0.4 nM.

Turning to B2, the Kd came out at 13.7 ± 0.6 nM. This Kd lies about 2.1-fold higher than the previous one.

As to B3, binding was characterised by a dissociation constant (Kd) of 50 ± 5 nM.

The molecule B4 returned a Kd of 37.4 ± 3.15 nM.

The molecule B5 showed a Kd of 108 ± 18.5 nM.

B6 had a Kd of 43.5 ± 5.5 nM. Against the preceding molecule, the Kd is about 2.5-fold lower.

Regarding B7, the Kd was found to be 16.4 ± 2.35 nM.

The molecule B8 returned a Kd of 36.9 ± 8.1 nM.

The molecule B9 came in with a Kd of 61.5 ± 9.5 nM. Compared with the last molecule, the Kd is about 1.7-fold higher.

Molecule B10 returned a Kd of 65.5 ± 7.5 nM.

B11 yielded a Kd of 75 ± 30 nM.

Molecule B12 yielded a Kd of 87 ± 16 nM.

Consider B13, for which the Kd is 82.5 ± 27.5 nM.

B14: the affinity, expressed as Kd, was 4.56 ± 0.52 nM. Compared with the last molecule, the Kd is about 18-fold lower.

With B15, binding was characterised by a dissociation constant (Kd) of 63 ± 8.5 nM.

Molecule B16 yielded a Kd of approximately 75 nM.

Take B17: the Kd was found to be 95.5 ± 22.5 nM.

For B18, the Kd was found to be 10.4 ± 1.4 nM.

Molecule B19 displayed a Kd of 28.5 ± 14 nM.

Consider B20, for which the Kd was 55 ± 8 nM.

B21 came in with a Kd of 10.5 ± 1 nM.

Consider B22, for which binding was put at a Kd of 22.9 ± 2.2 nM. This Kd lies about 2.2-fold higher than the previous one.

Molecule B23 yielded a Kd of 11.4 ± 1.1 nM.

B24 gave a Kd of 36.5 ± 7 nM. Against the preceding molecule, the Kd is about 3.2-fold higher.

On to B25, for which the Kd stood at 110 ± 45 nM.

For the molecule B26, the Kd came out at 108 ± 25 nM.

The molecule B27 gave a Kd of 39.8 ± 3.75 nM.

The values above are taken from PMC10786891, “Massively parallel profiling of RNA-targeting CRISPR-Cas13d”.
